Tested on: p27 phosphorylation at S83 and T187 in cardiomyocytes
Experiment: p27 phosphorylation at S83 and T187 in Ang II-treated cardiomyocytes (Western blot)
Format: cell-based, rat
Conditions: Ang II 4 h; lentiviruses 72 h; DMAT 20 μM pre-incubated 30 min; TAT-conjugated CK2-alpha-prime 2.5 μg/ml 1 h
Description: FIG. 2 is a series of graphs and blots showing Ang II triggers CK2-alpha-prime-dependent phosphorylation of p27 on S83 and T187 in cardiomyocytes. (A) p27 is a substrate of CK2-alpha-prime. […] In vitro kinase assays employing recombinant wt.p27 (1 μg) or phosphorylation site mutants of p27 as substrates were incubated with recombinant CK2-alpha-prime/beta (200 ng). Aliquots of the reaction mixtures were resolved on SDS-PAGE, electrotransferred to nitrocellulose membranes, and the amount of incorporated radioactive [^32P}-label into p27 was quantified with a PhosphorImager and ImageJ software. Individual membranes were probed with anti-CK2-alpha-prime, anti-p27 (input), or phosphorylation site specific antibodies to p27. […] Samples were resolved on SDS-PAGE, transferred to nitrocellulose-membranes, and the amount of incorporated radioactive label into histones was quantified with a PhosphorImager and ImageJ. The input amount of each CK2-alpha-prime and p27 protein used in the kinase reaction mixtures was monitored by immunoblot analysis employing anti-His. […] Biochemically fractionated extracts corresponding to 4×10^5 cells per lane were analyzed by immunoblotting employing antibodies as indicated on the left. […]

B1: kd.CK2-α′: catalytically-inactive kinase-dead CK2-alpha-prime, point mutation K69M; TAT-conjugated protein in mice, lentivirally expressed in cardiomyocytes (protein)
chain: MPGPAAGSRARVYAEVNSLRSREYWDYEAHVPSWGNQDDYQLVRKLGRGKYSEVFEAINITNNERVVVMILKPVKKKKIKREVKILENLRGGTNIIKLIDTVKDPVSKTPALVFEYINNTDFKQLYQILTDFDIRFYMYELLKALDYCHSKGIMHRDVKPHNVMIDHQQKKLRLIDWGLAEFYHPAQEYNVRVASRYFKGPELLVDYQMYDYSLDMWSLGCMLASMIFRREPFFHGQDNYDQLVRIAKVLGTEELYGYLKKYHIDLDPHFNDILGQHSRKRWENFIHSENRHLVSPEALDLLDKLLRYDHQQRLTAKEAMEHPYFYPVVKEQSQPCADNAVLSSGLTAAR
modifications: left off: small tags and cut ends
notes: TAT-conjugated protein in mice, lentivirally expressed in cardiomyocytes
S83/T187 phosphorylation of p27 in cardiomyocytes: abolished

From US20110086089A1, “USE OF P27KIP1 FOR THE PREVENTION AND TREATMENT OF HEART FAILURE” (UNIVERSITY HEALTH NETWORK, priority 2008, published 2011)
